This assay concerns the target hyper-IL-6 (HIL-6). Briefly: SPR. On the technique in general: SPR reads the build-up and loss of mass on a sensor chip optically.

hyper-IL-6 (HIL-6), sequence (A0N0L4 whole entry): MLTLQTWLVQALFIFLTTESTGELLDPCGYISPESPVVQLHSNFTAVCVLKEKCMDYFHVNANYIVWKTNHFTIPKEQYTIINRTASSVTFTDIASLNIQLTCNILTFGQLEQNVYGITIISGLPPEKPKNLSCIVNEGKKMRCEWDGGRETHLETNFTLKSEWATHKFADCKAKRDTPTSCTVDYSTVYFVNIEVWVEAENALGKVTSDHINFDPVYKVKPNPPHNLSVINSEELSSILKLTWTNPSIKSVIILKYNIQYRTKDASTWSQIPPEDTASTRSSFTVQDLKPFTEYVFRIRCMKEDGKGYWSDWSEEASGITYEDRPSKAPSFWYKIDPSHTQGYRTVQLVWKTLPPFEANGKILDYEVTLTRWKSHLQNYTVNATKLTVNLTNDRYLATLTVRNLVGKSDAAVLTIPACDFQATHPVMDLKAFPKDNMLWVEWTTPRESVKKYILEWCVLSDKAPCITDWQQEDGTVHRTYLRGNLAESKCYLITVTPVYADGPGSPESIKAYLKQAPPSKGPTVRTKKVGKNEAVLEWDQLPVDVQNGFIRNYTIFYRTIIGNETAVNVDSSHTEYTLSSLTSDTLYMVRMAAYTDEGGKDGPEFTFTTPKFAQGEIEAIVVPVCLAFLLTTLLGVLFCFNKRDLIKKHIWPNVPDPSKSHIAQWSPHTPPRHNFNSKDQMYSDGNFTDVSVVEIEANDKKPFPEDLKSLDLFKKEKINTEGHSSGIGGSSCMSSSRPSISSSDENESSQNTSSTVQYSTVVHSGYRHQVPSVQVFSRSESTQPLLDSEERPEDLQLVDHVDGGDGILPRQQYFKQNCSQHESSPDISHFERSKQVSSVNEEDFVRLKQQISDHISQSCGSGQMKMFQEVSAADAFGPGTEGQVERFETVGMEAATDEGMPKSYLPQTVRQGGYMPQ

B1: c19s130Fc (Fc fusion)
chain: ELLDPCGYISPESPVVQLHSNFTAVCVLKEKCMDYFHVNANYIVWKTNHFTIPKEQYTIINRTASSVTFTDIASLNIQLTCNILTFGQLEQNVYGITIISGLPPEKPKNLSCIVNEGKKMRCEWDGGRETHLETNFTLKSEWATHKFADCKAKRDTPTSCTVDYSTVYFVNIEVWVEAENALGKVTSDHINFDPVYKVKPNPPHNLSVINSEELSSILKLTWTNPSIKSVIILKYNIQYRTKDASTWSQIPPEDTASTRSSFTVQDLKPFTEYVFRIRCMKEDGKGYWSDWSEEASGITYEDDVQFVESGGGSVHAGGSLRLNCATSGYIYSTYCMGWFRQAPGKEREGVAHIYTNSGRTYYADSVKGRFTISQDNAKNTVYLQMNSLKPEDTAIYYCAARPSIRCASFSATEYKDWGQGTQVTVSSTGGGGSGGGGSGGGGTGQVQLQESGGGLVQAGGSLRLSCAASGRTFSEYAMGWFRQAPGKEREFVATISWSGGSTYYTDSVKGRFTISRDNAKNTVYLQMNSLKPDDTAVYYCAAAGLGTVVSEWDYDYDYWGQGTQVTVSS
For B1, the Kd (as a rule, a measure of binding affinity in units of concentration) amounted to 0.055 nM and the koff (as a rule, the rate constant with which the complex falls apart) came out at 7.1e-05 s⁻¹.

The values above are taken from publication PMC8865451 (Journal of Virology, 2021).
